Data published in article PMC314469, “Protein Interaction Networks by Proteome Peptide Scanning” (PLoS Biology, 2004).
Values belong to the binder of their own block, whether it stands above or below them.

Legend:
[1] = biological target: T1, amphyphisin SH3 (AMPH_HUMAN), P49418; test: SPOT array
T1 chain: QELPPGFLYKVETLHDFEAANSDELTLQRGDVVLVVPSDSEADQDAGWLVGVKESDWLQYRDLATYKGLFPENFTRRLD

[2] = biological target: endophilin SH3 (SH3G2_HUMAN), Q99962; test: SPOT array

B1: Q9NPG6 312-325 (peptide)
chain: VESILKRPSSAITR
normalised SPOT signal, Boehringer light units (BLU); mean over the file's lines of this peptide [1]: 27.1 | normalised SPOT signal, Boehringer light units (BLU); mean over the file's lines of this peptide [2]: 31.6

B2: Q9UL18 20-33 (peptide)
chain: VFQAPRRPGIGTVG
normalised SPOT signal, Boehringer light units (BLU); mean over the file's lines of this peptide [1]: 155 | normalised SPOT signal, Boehringer light units (BLU); mean over the file's lines of this peptide [2]: 728

B3: Q9H9Q6 68-81 (peptide)
chain: SGRHFRRPDPSREP
normalised SPOT signal, Boehringer light units (BLU); mean over the file's lines of this peptide [1]: 23.3 | normalised SPOT signal, Boehringer light units (BLU); mean over the file's lines of this peptide [2]: 15

B6: Q9ULB8 127-140 (peptide)
chain: VFRVLRRPQEFVNR
normalised SPOT signal, Boehringer light units (BLU); mean over the file's lines of this peptide [1]: 72.4 | normalised SPOT signal, Boehringer light units (BLU); mean over the file's lines of this peptide [2]: 281

B8: Q96MR0 151-164 (peptide)
chain: VEPPPRRPMSQKSE
normalised SPOT signal, Boehringer light units (BLU); mean over the file's lines of this peptide [1]: 247 | normalised SPOT signal, Boehringer light units (BLU); mean over the file's lines of this peptide [2]: 258

B11: Q96RQ9 355-368 (peptide)
chain: VFLSFRRPFWREEH
normalised SPOT signal, Boehringer light units (BLU); mean over the file's lines of this peptide [1]: 12.9 | normalised SPOT signal, Boehringer light units (BLU); mean over the file's lines of this peptide [2]: 13.7

B13: Q9NT61 332-345 (peptide)
chain: SGVRFHRPYRLLMH
normalised SPOT signal, Boehringer light units (BLU); mean over the file's lines of this peptide [1]: 1490 | normalised SPOT signal, Boehringer light units (BLU); mean over the file's lines of this peptide [2]: 200

B14: Q9Y3M8 456-469 (peptide)
chain: VGASLTRPNRRLRW
normalised SPOT signal, Boehringer light units (BLU); mean over the file's lines of this peptide [1]: 1960 | normalised SPOT signal, Boehringer light units (BLU); mean over the file's lines of this peptide [2]: 177

B15: Q9UIW6 20-33 (peptide)
chain: VFTPLRRPGMLVPK
normalised SPOT signal, Boehringer light units (BLU); mean over the file's lines of this peptide [1]: 98 | normalised SPOT signal, Boehringer light units (BLU); mean over the file's lines of this peptide [2]: 187

B17: Q9GZT0 109-122 (peptide)
chain: VGKAFIRPFREHHI
normalised SPOT signal, Boehringer light units (BLU); mean over the file's lines of this peptide [1]: 11700 | normalised SPOT signal, Boehringer light units (BLU); mean over the file's lines of this peptide [2]: 390

Other lines, results leading:

normalised SPOT signal, Boehringer light units (BLU); mean over the file's lines of this peptide [1]: 51.3 | normalised SPOT signal, Boehringer light units (BLU); mean over the file's lines of this peptide [2]: 79.6
B4: O95359 85-99 (peptide)
chain: VEGSPFRPPSHSFS

normalised SPOT signal, Boehringer light units (BLU); mean over the file's lines of this peptide [1]: 36.6 | normalised SPOT signal, Boehringer light units (BLU); mean over the file's lines of this peptide [2]: 77.8
B5: P21709 133-146 (peptide)
chain: VGIQLRRPLFQKVT

normalised SPOT signal, Boehringer light units (BLU); mean over the file's lines of this peptide [1]: 26 | normalised SPOT signal, Boehringer light units (BLU); mean over the file's lines of this peptide [2]: 115
B7: Q14571 2500-2513 (peptide)
chain: VGDVLRRPSKDEPL

normalised SPOT signal, Boehringer light units (BLU); mean over the file's lines of this peptide [1]: 26.8 | normalised SPOT signal, Boehringer light units (BLU); mean over the file's lines of this peptide [2]: 43.5
B9: P36776 780-793 (peptide)
chain: VETSLRRPQDKDAK

normalised SPOT signal, Boehringer light units (BLU); mean over the file's lines of this peptide [1]: 32.4 | normalised SPOT signal, Boehringer light units (BLU); mean over the file's lines of this peptide [2]: 20.6
B10: Q15370 31-44 (peptide)
chain: VEGILKRPPDEQRL

normalised SPOT signal, Boehringer light units (BLU); mean over the file's lines of this peptide [1]: 638 | normalised SPOT signal, Boehringer light units (BLU); mean over the file's lines of this peptide [2]: 49.9
B12: P25391 53-66 (peptide)
chain: VEHVPGRPVRNPQS

normalised SPOT signal, Boehringer light units (BLU); mean over the file's lines of this peptide [1]: 7280 | normalised SPOT signal, Boehringer light units (BLU); mean over the file's lines of this peptide [2]: 269
B16: Q92502 483-496 (peptide)
chain: VGASLTRPSRKLRW
